In patent publication US10370642B2, “Hematopoietic progenitor cell populations having affinity for E-selectin / L-selectin” (priority 2000, dated 2019):

T1: L-selectin (Rattus norvegicus, UniProt P30836)
T1 construct: L-selectin naturally expressed on leukocytes; endogenous in cells; host or cells: lymphocytes (rat thoracic duct lymphocytes; human PBMC also prepared)
T1 sequence (P30836 39-372): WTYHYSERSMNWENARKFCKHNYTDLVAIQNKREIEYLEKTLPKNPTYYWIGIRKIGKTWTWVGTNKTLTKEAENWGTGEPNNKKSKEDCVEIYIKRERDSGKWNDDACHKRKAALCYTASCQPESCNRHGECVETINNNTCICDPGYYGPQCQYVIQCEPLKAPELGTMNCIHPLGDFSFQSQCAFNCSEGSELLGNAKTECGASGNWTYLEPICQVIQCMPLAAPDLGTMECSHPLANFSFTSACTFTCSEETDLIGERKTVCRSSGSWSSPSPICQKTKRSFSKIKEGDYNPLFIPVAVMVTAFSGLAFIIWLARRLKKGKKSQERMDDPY

T2: E-selectin (Homo sapiens, UniProt P16581)
T2 construct: stably transfected with full-length cDNA encoding human E-selectin; expressed in transfected cells
T2 sequence (P16581 22-610): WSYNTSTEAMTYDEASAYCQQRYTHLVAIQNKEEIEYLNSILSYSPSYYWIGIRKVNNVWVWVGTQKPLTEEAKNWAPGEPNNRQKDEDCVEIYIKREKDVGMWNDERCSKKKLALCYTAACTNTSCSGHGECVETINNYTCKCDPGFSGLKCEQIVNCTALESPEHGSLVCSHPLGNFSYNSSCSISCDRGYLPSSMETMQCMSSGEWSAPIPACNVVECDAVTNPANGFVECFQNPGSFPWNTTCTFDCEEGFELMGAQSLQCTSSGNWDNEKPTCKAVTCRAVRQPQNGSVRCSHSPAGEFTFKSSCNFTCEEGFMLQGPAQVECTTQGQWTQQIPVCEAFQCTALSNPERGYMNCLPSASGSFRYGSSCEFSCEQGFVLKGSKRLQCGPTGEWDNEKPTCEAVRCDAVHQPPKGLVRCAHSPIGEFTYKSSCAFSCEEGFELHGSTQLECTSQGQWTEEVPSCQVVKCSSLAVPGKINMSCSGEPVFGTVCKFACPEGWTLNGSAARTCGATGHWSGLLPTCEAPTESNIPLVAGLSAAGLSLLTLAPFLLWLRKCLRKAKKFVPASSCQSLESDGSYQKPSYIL

B1: L-selectin (Molecular Control): L-selectin (LAM 1-3) immunoprecipitated from KG1a cells, negative molecular control (protein)
chain: WTYHYSEKPMNWQRARRFCRDNYTDLVAIQNKAEIEYLEKTLPFSRSYYWIGIRKIGGIWTWVGTNKSLTEEAENWGDGEPNNKKNKEDCVEIYIKRNKDAGKWNDDACHKLKAALCYTASCQPWSCSGHGECVEIINNYTCNCDVGYYGPQCQFVIQCEPLEAPELGTMDCTHPLGNFSFSSQCAFSCSEGTNLTGIEETTCGPFGNWSSPEPTCQVIQCEPLSAPDLGIMNCSHPLASFSFTSACTFICSEGTELIGKKKTICESSGIWSNPSPICQKLDKSFSMIKEGDYNPLFIPVAVMVTAFSGLAFIIWLARRLKKGKKSKRSMNDPY
B2: HL60 PSGL-1: PSGL-1 immunoprecipitated from HL60 cells (protein)
chain: QATEYEYLDYDFLPETEPPEMLRNSTDTTPLTGPGTPESTTVEPAARRSTGLDAGGAVTELTTELANMGNLSTDSAAMEIQTTQPAATEAQTTQPVPTEAQTTPLAATEAQTTRLTATEAQTTPLAATEAQTTPPAATEAQTTQPTGLEAQTTAPAAMEAQTTAPAAMEAQTTPPAAMEAQTTQTTAMEAQTTAPEATEAQTTQPTATEAQTTPLAAMEALSTEPSATEALSMEPTTKRGLFIPFSVSSVTHKGIPMAASNLSVNYPVGAPDHISVKQCLLAILILALVATIFFVCTVVLAVRLSRKGHMYPVRNYSPTEMVCISSLLPDGGEGPSATANGGLSKAKSPGLTPEPREDREGDDLTLHSFLP
B3: AML (M1) PSGL-1: PSGL-1 immunoprecipitated from AML (M1) blasts (protein)
chain: B2 chain
B4: CD34 (Molecular Control): CD34 (QBend-10) immunoprecipitated from KG1a cells, negative molecular control (protein)
chain: SLDNNGTATPELPTQGTFSNVSTNVSYQETTTPSTLGSTSLHPVSQHGNEATTNITETTVKFTSTSVITSVYGNTNSSVQSQTSVISTVFTTPANVSTPETTLKPSLSPGNVSDLSTTSTSLATSPTKPYTSSSPILSDIKAEIKCSGIREVKLTQGICLEQNKTSSCAEFKKDRGEGLARVLCGEEQADADAGAQVCSLLLAQSEVRPQCLLLVLANRTEISSKLQLMKKHQSDLKKLGILDFTEQDVASHQSYSQKTLIALVTSGALLAVLGITGYFLMNRRSWSPTGERLGEDPYYTENGGGQGYSSGPGTSPEAQGKASVNRGAQENGTGQATSRNGHSARQHVVADTEL

Assays:
HL60 cells = test: CHO-E cell rolling on glutaraldehyde-fixed HL60 monolayers; type: cell-based, human; details: 2.8 dynes/cm^2; EDTA 5 mM; HECA 452 50 μg/ml
Excerpt: (§1) E-selectin-mediated adhesive interactions, under defined shear stress, were examined between hematopoietic cell monolayers and suspensions of CHO-E (Chinese hamster ovary cells stably transfected with full-length cDNA encoding human E-selectin) in flow. CHO-E and empty vector constructs (CHO-Mock) were maintained in MEM 10% FBS/1% Penicillin/Streptomycin (Life Technologies, Inc.) and HAM's F-12 (Cellgro, Inc.)/5% FCS/1% Penicillin/Streptomycin, respectively. CHO-E cell tethering and rolling on hematopoietic cell monolayers was visualized by video microscopy in real time using the parallel-plate flow chamber. […] To prepare hematopoietic cell monolayers>90% confluent, suspensions of cells (KG1a, HL60, K562, or RPMI 8402) at 2×10^6/ml RPMI1640 without NaBicarbonate/2% FBS were cytocentrifuged in […] plates at 5×10^6/well and then fixed in 3% glutaraldehyde. Reactive aldehyde groups were blocked in 0.2M lysine, and plated cells were suspended H/H/Ca++. […] The number of CHO-E/Mock cell rolling on each monolayer was measured in one frame of five independent fields under 10× magnification from multiple experiments. A minimum of 3 experiments was performed and results were expressed as the mean±standard deviation.

KG1a cells = test: CHO-E cell rolling on glutaraldehyde-fixed KG1a monolayers; type: cell-based, human; details: 2.8 dynes/cm^2; EDTA 5 mM; HECA 452 50 μg/ml
Excerpt: as §1

L-selectin = target: T1, L-selectin; test: Stamper-Woodruff assay, lymphocyte adherence to immunoprecipitated CD44 and PSGL-1; type: cell-based; details: 80 rpm; for Mean Number of Bound Lymphocytes: 0.75 μg/spot (PSGL-1 1 μg/spot), 4° C., 100× mag.
Experimental: These protein spots were then fixed in 3% glutaraldehyde, unreactive aldehyde groups were blocked in 0.2M lysine and slides were kept in RPMI-1640 without NaBicarbonate/2% FBS until ready for testing. Lymphocytes (10^7/ml RPMI-1640 without NaBicarbonate/5% FBS) were overlayed onto these fixed immunoprecipitates and incubated on an orbital shaker at 80 rpm for 30 min. at 4° C. The number of adherent lymphocytes was quantified by light microscopy using an ocular grid under 100× magnification (a minimum of 5 fields/slide, 2 slides/experiment, and 3 separate experiments). Data were presented as the mean number of bound lymphocytes±standard deviation. KG1a CD34 and L-selectin control immunoprecipitates were also tested in this manner. To verify the dependence for sialic acid, glutaraldehyde-fixed spots were treated with Vibrio cholerae neuraminidase (0.1 U/ml RPMI-1640 without NaBicarbonate/2% FBS for lhr at 37° C.).
Immunoaffinity purified material (0.75-3 μg/spot) was spotted onto glass slides for analyses in the Stamper-Woodruff assay (See below for assay description). For autoradiographic analysis of immunoprecipitated [^35S]-methionine-radiolabeled CD44 and PSGL-1, immunoprecipitates were spotted onto glass slides, allowed to dry and exposed Kodak BioMax-MR film for 12 h at −80° C. Densitometric analysis (optical density) of the autoradiograms was performed with a Hewlett-Packard Scanj et 5200C scanner and NIH Image processing and analysis program.

E-selectin [1] = target: T2, E-selectin; test: Blot rolling assay with CHO-E cells; type: cell-based; details: immunoprecipitated CD44 on Western blot; 3.8 dynes/cm^2
Experimental: The blot rolling assay was performed as previously described (Dimitroff et al., 2000). Briefly, CHO-E, CHO—P or CHO-Mock transfectants were isolated as described above, washed twice in HBSS and suspended at 10^7/ml in HBSS/10 mM HEPES/2mMCaCl2 (H/H/Ca++)/10% glycerol. Western blots of HPC membrane preparations stained with HECA-452 were rendered transparent by incubating them in H/H/Ca++/10% glycerol. The blots were then placed in the parallel-plate flow chamber, and CHO transfectants (2×10^6/ml) were perfused into the chamber. After allowing the cells to come in contact with the blotting membrane, the flow rate was adjusted to exert a shear stress of 3.8 dynes/cm^2. The viscosity of 10% glycerol adhesion assay medium was considered in the calculation of shear stress values. The number of cells rolling on and between each immunostained banding region was quantified under 100× magnification within each field of view on the video monitor using molecular weight markers (Kaleidoscope Molecular Weight Markers, Bio-Rad Lab.; See Blue® from Novex, Inc.) as guides to help align and visualize the apparent molecular weights of the proteins of interest. A minimum of 3 experiments was performed and results were expressed as the mean±SD of cell rolling/field at 100× magnification.

E-selectin [2] = target: T2, E-selectin; test: CHO-E cell rolling on immobilized immunoprecipitates, parallel-plate flow chamber; type: cell-based; details: immunoprecipitates on plastic; 2.8 dynes/cm^2
Experimental: CD44 was immunoprecipitated from untreated cell lysates or from cell lysates treated with N-glycosidase-F (0.8 U/ml) Vibrio cholerae neuraminidase (0.1 U/ml) or a-L-fucosidase (80 mU/ml), and PSGL-1 was immunoprecipitated from untreated cell lysates as previously described (Sackstein and Dimitroff, 2000; Dimitroff et al., 2000).
CD44 or PSGL-1 immunoprecipitates were spotted onto plastic petri dishes, fixed in 3% glutaraldehyde and incubated in 0.2M lysine to block unreactive aldehyde groups, and then non-specific binding was prevented by incubating in 100% FBS for 1 hr at RT. Fixed spots were also treated with Vibrio cholerae neuraminidase (0.1 U/ml assay medium), which was overlaid onto the spots and incubated at 37° C. for 1 hr. […] The flow rate was then increased to achieve a shear stress of 2.8 dynes/cm^2. The frequency of cells rolling per 100× magnification field was determined, and data were expressed as the mean±standard deviation of 8 fields visualized from a minimum of 3 experiments.

Row | Molecule | Mean Number of Bound Lymphocytes (L-selectin) | E-selectin ligand activity (CHO-E cell rolling) (E-selectin [2]) | also measured
1 | O=C(O)CN(CCN(CC(=O)O)CC(=O)O)CC(=O)O [EDTA] |  |  | CHO-E cell rolling / E-selectin ligand activity of HL60 cells (HL60 cells): completely inhibited; CHO-E cell rolling / E-selectin ligand activity of KG1a cells (KG1a cells): completely inhibited
2 | AML (M1) CD44: CD44 (HCELL) immunoprecipitated from blasts of an AML without maturation (M1) | 425.3 |  | fold higher mean number of lymphocytes bound to CD44 than to PSGL-1 (L-selectin; p<0.001): 3 fold
3 | AML (M1) N-glycosidase-F CD44: N-glycosidase-F-treated CD44 from AML (M1) blasts | 23.4 |  | 
4 | BMEC-1 CD44: CD44 from human BM endothelial cell line BMEC-1 |  |  | E-selectin ligand activity (CHO-E cell rolling) in blot rolling assay (E-selectin [1]): did not possess any E-selectin ligand activity
5 | HL60 CD44: CD44 immunoprecipitated from HL60 cells | 6.5 | did not support any CHO-E cell rolling | 
6 | K562 CD44: CD44 isolated from K562 cells |  | did not support any CHO-E cell rolling | 
7 | RPMI 8402 CD44: CD44 isolated from RPMI 8402 cells |  | did not support any CHO-E cell rolling | 
8 | a-L-fucosidase-treated KG1a CD44: CD44 immunoprecipitated from a-L-fucosidase-treated KG1a lysate |  | abrogated CHO-E cell rolling | 
9 | B1 | 0.5 |  | 
10 | B2 | 11.0 |  | 
11 | B3 | 141.5 |  | 
12 | B4 | 4.0 |  | 
